B1: GC35 (bispecific antibody, human IgG1, kappa, L234A L235A)
heavy: EVQLVQSGAEVVKPGASVKMSCKASGYTFTNYVMHWVKQAPGQGLEWMGYFNPYNDGTNYNEKFKGRVTLTSDTSANTAYMELSSLRSEDTAVYYCARGGVRRYFDVWGQGTTVTVSSASTKGPSVFPLAPSSKSTSGGTAALGCLVKDYFPEPVTVSWNSGALTSGVHTFPAVLQSSGLYSLSSVVTVPSSSLGTQTYICNVNHKPSNTKVDKKVEPKSCDKTHTCPPCPAPEAAGGPSVFLFPPKPKDTLMISRTPEVTCVVVDVSHEDPEVKFNWYVDGVEVHNAKTKPREEQYNSTYRVVSVLTVLHQDWLNGKEYKCKVSNKALAAPIEKTISKAKGQPREPQVCTLPPSREEMTKNQVSLSCAVKGFYPSDIAVEWESNGQPENNYKTTPPVLDSDGSFFLVSKLTVDKSRWQQGNVFSCSVMHEALHNHYTQKSLSLSPGK
light: DIQMTQSPSSLSASVGDRVTITCRASQDIGSNLNWLQLGPGGAIKRLIYATFSLDSGVPSRFSGSRSGSDYTLTISSLQPEDFVDYYCQQYANFPPTFGGGTKVEIKRTVAAPSVFIFPPSDEQLKSGTASVVCLLNNFYPREAKVQWKVDNALQSGNSQESVTEQDSKDSTYSLSSTLTLSKADYEKHKVYACEVTHQGLSSPVTKSFNRGEC
scFv: ELVVTQEPSLTTSPGGTVTLTCRSSTGAVTTSNYANWVQQKPGQAPRGLIGGTNKRAPGTPARFSGSLLGGKAALTITGVQPEDEAEYYCALWYSNLWVFGGGTKLTVLGGGGSGGGGSGGGGSEVQLVESGGGLVQPGGSLRLSCAASGFTFNTYAMNWVRQAPGKGLEWVARIRSKYNNYATYYADSVKDRFTISRDDSKNTAYLQMNNLKTEDTAMYYCVRHGNFGNSYVSWFAYWGQGTLVTVSSGEPKSSDKTHTCPPCPAPEAAGGPSVFLFPPKPKDTLMISRTPEVTCVVVDVSHEDPEVKFNWYVDGVEVHNAKTKPREEQYNSTYRVVSVLTVLHQDWLNGKEYKCKVSNKALAAPIEKTISKAKGQPREPQVYTLPPCREEMTKNQVSLWCLVKGFYPSDIAVEWESNGQPENNYKTTPPVLDSDGSFFLYSKLTVDKSRWQQGNVFSCSVMHEALHNRYTQKSLSLSPGK
notes: also called anti-GPRC5D/anti-CD3 bispecific antibody GC35
B2: GC39 (bispecific antibody, human IgG1, kappa, L234A L235A)
heavy: EVQLVESGGGLVQPGGSRRVSCAASGFTFSSFGMHWVRQAPGKGLEWVAYISRGSSTIYYADTVKGRFTISRDNAKNSLYLQMNSLRAEDTAVYYCARSGYGSSSYYFDYWGQGTTVTVSSASTKGPSVFPLAPSSKSTSGGTAALGCLVKDYFPEPVTVSWNSGALTSGVHTFPAVLQSSGLYSLSSVVTVPSSSLGTQTYICNVNHKPSNTKVDKKVEPKSCDKTHTCPPCPAPEAAGGPSVFLFPPKPKDTLMISRTPEVTCVVVDVSHEDPEVKFNWYVDGVEVHNAKTKPREEQYNSTYRVVSVLTVLHQDWLNGKEYKCKVSNKALAAPIEKTISKAKGQPREPQVCTLPPSREEMTKNQVSLSCAVKGFYPSDIAVEWESNGQPENNYKTTPPVLDSDGSFFLVSKLTVDKSRWQQGNVFSCSVMHEALHNHYTQKSLSLSPGK
light: EIVLTQSPATLSASPGERATMSCRASSSIRSSYLHWYQQKPGQSPRLWIYSTSNLASGVPARFSGSGSGTDYTLTISSLEPEDAAVYYCQQFSGYPLTFGGGTKVEIKRTVAAPSVFIFPPSDEQLKSGTASVVCLLNNFYPREAKVQWKVDNALQSGNSQESVTEQDSKDSTYSLSSTLTLSKADYEKHKVYACEVTHQGLSSPVTKSFNRGEC
scFv: B1 scFv
notes: also called anti-GPRC5D/anti-CD3 bispecific antibody GC39
B3: Talquetamab (bispecific antibody, human IgG4 S228P, kappa, lambda, F234A L235A)
heavy 1: not shown
light 1: DIQMTQSPSSLSASVGDRVTITCKASQNVATHVGWYQQKPGKAPKRLIYSASYRYSGVPSRFSGSGSGTEFTLTISNLQPEDFATYYCQQYNRYPYTFGQGTKLEIKRTVAAPSVFIFPPSDEQLKSGTASVVCLLNNFYPREAKVQWKVDNALQSGNSQESVTEQDSKDSTYSLSSTLTLSKADYEKHKVYACEVTHQGLSSPVTKSFNRGEC
heavy 2: EVQLVESGGGLVQPGGSLRLSCAASGFTFNTYAMNWVRQAPGKGLEWVARIRSKYNNYATYYAASVKGRFTISRDDSKNSLYLQMNSLKTEDTAVYYCARHGNFGNSYVSWFAYWGQGTLVTVSSASTKGPSVFPLAPCSRSTSESTAALGCLVKDYFPEPVTVSWNSGALTSGVHTFPAVLQSSGLYSLSSVVTVPSSSLGTKTYTCNVDHKPSNTKVDKRVESKYGPPCPPCPAPEAAGGPSVFLFPPKPKDTLMISRTPEVTCVVVDVSQEDPEVQFNWYVDGVEVHNAKTKPREEQFNSTYRVVSVLTVLHQDWLNGKEYKCKVSNKGLPSSIEKTISKAKGQPREPQVYTLPPSQEEMTKNQVSLTCLVKGFYPSDIAVEWESNGQPENNYKTTPPVLDSDGSFLLYSKLTVDKSRWQEGNVFSCSVMHEALHNHYTQKSLSLSLGK
light 2: QTVVTQEPSLTVSPGGTVTLTCRSSTGAVTTSNYANWVQQKPGQAPRGLIGGTNKRAPGTPARFSGSLLGGKAALTLSGVQPEDEAEYYCALWYSNLWVFGGGTKLTVLGQPKAAPSVTLFPPSSEELQANKATLVCLISDFYPGAVTVAWKADSSPVKAGVETTTPSKQSNNKYAASSYLSLTPEQWKSHRSYSCQVTHEGSTVEKTVAPTECS
notes: Four polypeptide chains (anti-GPRC5D-HC/LC, anti-CD3-HC/LC); made in house by in vitro assembly of the two parental monoclonal antibodies with 2-MEA; also called benchmark; BM

The target in the experiment is T1, T cell surface CD3 (human, UniProt P07766 23-207).
T1 construct: whole, on cells
T1 sequence (P07766 23-207): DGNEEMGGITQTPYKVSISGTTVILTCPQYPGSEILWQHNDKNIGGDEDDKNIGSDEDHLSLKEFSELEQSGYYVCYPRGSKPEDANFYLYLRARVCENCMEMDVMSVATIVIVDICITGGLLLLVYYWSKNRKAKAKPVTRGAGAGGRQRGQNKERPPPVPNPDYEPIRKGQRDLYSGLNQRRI
Nature of the experiment: flow cytometry on human CD3+ T cells. Here is the method:
Human PBMCs (peripheral blood mononuclear cells) were sorted for CD3⁺ T cells using CD3 magnetic beads (Miltenyi, Cat. No. 130-097-043). The cryopreserved PBMCs were thawed, and washed by centrifugation twice for counting. The running buffer (MACS, Cat. No. 130-091-221) was added at a ratio of 80 μL per 10⁷ cells, and the CD3 magnetic beads were added at a ratio of 20 μL CD3 magnetic beads per 10⁷ cells. The mixture was mixed well and incubated at 4° C. for 15 min. The running buffer was added at a ratio of 1-2 mL per 10⁷ cells for washing the cells. The mixture was centrifuged, the supernatant was discarded, and 500 μL of running buffer was added to resuspend the cell pellet. The LS sorting column (Miltenyi, Cat. No. 130-042-401) was placed on the MidiMACS Starting Kit (LS) magnetic rack (Miltenyi, Cat. No. 130-091-051). After rinsing, the cell suspension was added and washed thrice. The LS sorting column was removed from the magnetic rack and placed on a clean centrifuge tube and 5 mL buffer was added to collect the sorted CD3⁺ T cells.
After counting, the CD3⁺ T cells were adjusted to a cell density of 1×10⁶-2×10⁶ cells/mL using running buffer, and seeded in a 96-well U-bottom cell culture plate (Costar, Cat. No. 3799) at 50 μL per well. Different concentrations of the anti-GPRC5D/anti-CD3 bispecific antibodies were prepared using running buffer. The highest concentration of the antibodies was 200 nM, and the antibodies were serially diluted 5-fold to obtain a total of 10 concentration gradients. The antibodies at different concentrations were added to the 96-well cell culture plate described above at 50 μL per well, mixed well and incubated at 4° C. for 1 h. The cells were washed with pre-cooled running buffer (MACS, Cat. No. 130-091-221), and then the supernatant was discarded. Pre-cooled PE-conjugated goat anti-human IgG Fcγ antibody (Jackson Immuno Research, Cat. No. 109-116-170) was added, and the cells were resuspended at 100 μL/well. The mixture was mixed well and incubated at 4° C. for 30 min. […]
With B1, the “Top(MFI)” value amounted to 54700.

On to B2, for which the “Top(MFI)” value amounted to 38000.

In the case of B3, the “Top(MFI)” value turned out to be 155000.

The values above are taken from patent US20260226168A1 (CHIA TAI TIANQING PHARMACEUTICAL GROUP, published 2026).
